Data: patent US20180155451A1 (published 2018)
Changes are numbered by the printed parent chain. Names may count otherwise.

T1: FcgRIIa R (human, UniProt P12318 34-217)
T1 construct: extracellular domain; also called FcγRIIa R; FcγRIIa type R; not shown: His tag attached to the C terminus
T1 sequence (looked up): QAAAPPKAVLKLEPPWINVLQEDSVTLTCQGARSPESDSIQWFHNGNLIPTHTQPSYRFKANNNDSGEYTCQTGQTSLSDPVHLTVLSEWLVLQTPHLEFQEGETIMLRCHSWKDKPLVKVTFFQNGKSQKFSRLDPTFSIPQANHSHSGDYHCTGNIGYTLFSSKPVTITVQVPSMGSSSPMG

T2: FcgRIIb (human, UniProt P31994 43-217)
T2 construct: extracellular domain; Expressed in FreeStyle293 cells and purified; used as analyte in Biacore; also called FcγRIIb; CD32B; not shown: His tag attached to the C terminus
T2 sequence (looked up): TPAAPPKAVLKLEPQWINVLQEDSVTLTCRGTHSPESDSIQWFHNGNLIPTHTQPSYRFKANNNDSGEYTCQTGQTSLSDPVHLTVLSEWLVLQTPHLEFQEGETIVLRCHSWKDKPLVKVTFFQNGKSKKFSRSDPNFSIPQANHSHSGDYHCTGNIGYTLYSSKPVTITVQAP

T3: FcgRIIa H (human, UniProt P12318 34-217)
T3 construct: extracellular domain; also called FcγRIIa H; FcγRIIa type H; not shown: His tag attached to the C terminus
T3 sequence (looked up): T1 sequence (looked up) with R134H

T4: FcgRIIb extracellular domain, C-terminal His tag (human, UniProt P31994 43-217)
T4 construct: extracellular domain; also called FcγRIIb; 2b; not shown: His tag attached to the C terminus
T4 sequence (looked up): T2 sequence (looked up)

T5: FcgRIIa H type extracellular domain, C-terminal His tag (human, UniProt P12318 34-217)
T5 construct: extracellular domain; also called FcγRIIa H; 2aH; not shown: His tag attached to the C terminus
T5 sequence (looked up): T1 sequence (looked up) with R134H

T6: FcgRIIa R type extracellular domain, C-terminal His tag (human, UniProt P12318 34-217)
T6 construct: extracellular domain; also called FcγRIIa R; 2aR; not shown: His tag attached to the C terminus
T6 sequence (looked up): T1 sequence (looked up)

B1: H240-Kn115/H240-Hl076/L73-k0 (antibody, human IgG1, kappa)
heavy 1: QDQLVQSGAEVKKPGASVKVSCKASGFNIKDTYIQWVRQAPGQGLEWMGRIDPLRKQTKYREKFEGRVTITADTSTNTAYMELSSLRSEDTAVYYCVRSGREFDYWGQGTLVTVSSASTKGPSVFPLAPSSKSTSGGTAALGCLVKDYFPEPVTVSWNSGALTSGVHTFPAVLQSSGLYSLSSVVTVPSSSLGTQTYICNVNHKPSNTKVDKKVEPKSCDKTHTCPPCPAPEYYWGPMVFLFPPKPKDTLMISRTPEVTCVVVDVSDEEPEVKFNWYVDGVEVHNAKTKPREEQYNATYRVVSVLTVLHQDWLNGKEYKCKVSNKALPAPIEKTISKAKGQPREPQVCTLPPSRDELTKNQVSLWCLVKGFYPSDIAVEWESNGQPENNYKTTPPVLDSDGSFFLYSKLTVDKSRWQQGNVFSCSVMHEALHNHYTQKSLSLSP
heavy 2: QDQLVQSGAEVKKPGASVKVSCKASGFNIKDTYIQWVRQAPGQGLEWMGRIDPLRKQTKYREKFEGRVTITADTSTNTAYMELSSLRSEDTAVYYCVRSGREFDYWGQGTLVTVSSASTKGPSVFPLAPSSKSTSGGTAALGCLVKDYFPEPVTVSWNSGALTSGVHTFPAVLQSSGLYSLSSVVTVPSSSLGTQTYICNVNHKPSNTKVDKKVEPKSCDKTHTCPPCPAPELLGGPSVFLFPPKPKDTLMISRTPEVTCVVVDVSHEEPEVKFNWYVDGVEVHNAKTKPREEQYNSTYRVVSVLTVLHQDWLNGKEYKCKVSNDALPMPIEETISKAKGQPREPQVYTLPPSRCELTKNQVSLSCAVKGFYPSDIAVEWESNGQPENNYKTTPPVLDSDGSFFLVSKLTVDKSRWQQGNVFSCSVMHEALHNHYTQKSLSLSP
light: DIQMTQSPSSLSASVGDRVTITCRASQDIHKYIAWYQQKPGQAPRLLIQYTSTLQPGVPSRFSGSGSGTDYTFTISSLQPEDIATYYCLQYEQLRTFGGGTKVEIKRTVAAPSVFIFPPSDEQLKSGTASVVCLLNNFYPREAKVQWKVDNALQSGNSQESVTEQDSKDSTYSLSSTLTLSKADYEKHKVYACEVTHQGLSSPVTKSFNRGEC
notes: Heterodimerized anti-EREG IgG1: Kn115 is H240-Kn072 with S239M
B2: H240-Kn125/H240-Hl076/L73-k0 (antibody, human IgG1, kappa)
heavy 1: B1 heavy 1 with Y234Q
heavy 2: B1 heavy 2
light: B1 light
notes: Heterodimerized anti-EREG IgG1: Kn125 is H240-Kn072 with Y235Q and S239M
B3: H240-FA021/H240-FB059/L73-k0 (antibody, human IgG1, kappa)
heavy 1: B1 heavy 1 with Q195K, I198T, M238S, C348Y, D355K, L357K, W365T, V396K, H434R
heavy 2: B1 heavy 2 with G137E, K146E, K273Q, K287E, C355E, L357M, S365T, A367L, V406Y, K438E
light: B1 light
notes: Heterodimerized anti-epiregulin IgG1 antibody
B4: H240-FA021/H240-FB083/L73-k0 (antibody, human IgG1, kappa)
heavy 1: B1 heavy 1 with Q195K, I198T, M238S, C348Y, D355K, L357K, W365T, V396K, H434R
heavy 2: QDQLVQSGAEVKKPGASVKVSCKASGFNIKDTYIQWVRQAPGQGLEWMGRIDPLRKQTKYREKFEGRVTITADTSTNTAYMELSSLRSEDTAVYYCVRSGREFDYWGQGTLVTVSSASTKGPSVFPLAPSSKSTSESTAALGCLVEDYFPEPVTVSWNSGALTSGVHTFPAVLQSSGLYSLSSVVTVPSSNFGTQTYTCNVDHKPSNTKVDKTVEPKSCDKTHTCPPCPAPELLGGPSVFLFPPKPKDTLMISRTPEVTCVVVDVSHEEPEVQFNWYVDGVEVHNAETKPREEQYNSTYRVVSVLTVLHQDWLNGKEYKCKVSNDALPMPIEETISKAKGQPREPQVYTLPPSREEMTKNQVSLTCLVKGFYPSDIAVEWESNGQPENNYKTTPPVLDSDGSFFLYSKLTVDKSRWQQGNVFSCSVMHEALHNHYTQESLSLSP
light: B1 light
notes: as for B3
B5: H240-FA020/H240-FB082/L73-k0 (antibody, human IgG1, kappa)
heavy 1: B1 heavy 1 with Q195K, I198T, M238S, C348Y, D355K, L357K, W365T, H434R
heavy 2: B4 heavy 2 with E136G, S137E, N191S, F192L, T198I, D202N, T213K, N383E
light: B1 light
notes: as for B3
B6: H240-FA021/H240-FB082/L73-k0 (antibody, human IgG1, kappa)
heavy 1: B1 heavy 1 with Q195K, I198T, M238S, C348Y, D355K, L357K, W365T, V396K, H434R
heavy 2: B4 heavy 2 with E136G, S137E, N191S, F192L, T198I, D202N, T213K, N383E
light: B1 light
notes: as for B3
B7: H240-FA020/H240-FB084/L73-k0 (antibody, human IgG1, kappa)
heavy 1: B1 heavy 1 with Q195K, I198T, M238S, C348Y, D355K, L357K, W365T, H434R
heavy 2: B4 heavy 2 with N383E
light: B1 light
notes: as for B3
B8: H240-FA020/H240-FB059/L73-k0 (antibody, human IgG1, kappa)
heavy 1: B1 heavy 1 with Q195K, I198T, M238S, C348Y, D355K, L357K, W365T, H434R
heavy 2: B4 heavy 2 with E136G, S137E, N191S, F192L, T198I, D202N, T213K
light: B1 light
notes: as for B3
B9: H240-FA020/H240-FB083/L73-k0 (antibody, human IgG1, kappa)
heavy 1: B1 heavy 1 with Q195K, I198T, M238S, C348Y, D355K, L357K, W365T, H434R
heavy 2: B4 heavy 2
light: B1 light
notes: as for B3

biological target: T7, FcgRIa (human, UniProt P12314 16-292); assay: SPR (Biacore), antibody captured on chip, FcgR extracellular domain as analyte
T7 construct: extracellular domain; Expressed in FreeStyle293 cells and purified; used as analyte in Biacore; also called FcγRIa; FcγRI; not shown: His tag attached to the C terminus
T7 sequence (P12314 16-292): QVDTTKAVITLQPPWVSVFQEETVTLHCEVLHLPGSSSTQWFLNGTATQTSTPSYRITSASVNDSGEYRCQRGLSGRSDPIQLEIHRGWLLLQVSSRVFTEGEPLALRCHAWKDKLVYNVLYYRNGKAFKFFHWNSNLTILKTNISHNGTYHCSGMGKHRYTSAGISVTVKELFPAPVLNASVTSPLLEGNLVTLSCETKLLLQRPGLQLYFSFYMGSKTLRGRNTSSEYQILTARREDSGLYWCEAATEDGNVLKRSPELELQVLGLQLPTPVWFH
Protocol: (§1) H240-Kn113 (SEQ ID NO: 92) resulting from introduction of Y234E and Y235N into H240-Kn072, H240-Kn115 (SEQ ID NO: 93) resulting from introduction of S239M into H240-Kn072, and H240-Kn125 (SEQ ID NO: 94) resulting from introduction of Y235Q and S239M into H240-Kn072 were prepared according to the method described in Reference Example 1.
(§2) Analysis of interaction between obj ective antibody and the FcγR was carried out using Biacore T100 (GE Healthcare), Biacore T200, Biacore A100, and Biacore 4000. HBS-EP+ (GE Healthcare) was used as the running buffer, and the measurement temperature was set to 25° C. Chips produced by immobilizing the antigen peptide by the amine coupling method to a Series S sensor Chip CM5 (GE Healthcare), chips produced by allowing preliminarily biotinylated antigen peptides to interact with and immobilize onto a Series S Sensor Chip SA (certified) (GE Healthcare), chips produced by immobilizing Protein L (ACTIGEN, BioVision) to Series S Sencor Chip CM5 (GE Healthcare), or chips produced by immobilizing Protein A/G (Thermo Scientific) to Series S Sencor Chip CM5 (GE Healthcare) were used. Antibodies of interest were captured onto these chips, and allowed to interact to each FcγR diluted with running buffer. To regenerate and repeatedly use the chip, the antibodies captured onto the chip were washed off by reacting 10 mM glycine-HCl, pH 1.5.

Row | Binder | Kd
1 | B1 | 0.27 nM
2 | B2 | 0.24 nM

biological target: T1, FcgRIIa R; assay: as above
Protocol: as §1, §2

Row | Binder | Kd
3 | B1 | 130 nM
4 | B2 | 380 nM

biological target: T8, FcgRIIIa F (human, UniProt P08637 17-208); assay: as above
T8 construct: extracellular domain; also called FcγRIIIa F; not shown: His tag attached to the C terminus
T8 sequence (P08637 17-208): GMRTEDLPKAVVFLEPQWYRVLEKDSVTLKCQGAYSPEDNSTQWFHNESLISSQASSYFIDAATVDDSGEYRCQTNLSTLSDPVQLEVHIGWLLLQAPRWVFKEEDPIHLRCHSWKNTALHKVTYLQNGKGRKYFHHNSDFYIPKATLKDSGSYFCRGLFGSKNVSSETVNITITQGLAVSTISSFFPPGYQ
Protocol: as §1, §2

Row | Binder | Kd
5 | B1 | 1.4 nM
6 | B2 | 1.2 nM

biological target: T9, FcgRIIIa V (human, UniProt P08637 17-208); assay: as above
T9 construct: extracellular domain; also called FcγRIIIa V; not shown: His tag attached to the C terminus
T9 sequence (P08637 17-208 F176V limits assumed): as the sequence (P08637 17-208) above, with F160V counted along it
Protocol: as §1, §2

Row | Binder | Kd
7 | B1 | 0.43 nM
8 | B2 | 0.37 nM

biological target: T2, FcgRIIb; assay: as above
Protocol: as §1, §2

Row | Binder | Kd
9 | B1 | 1300 nM
10 | B2 | 4200 nM

biological target: T3, FcgRIIa H; assay: as above
Protocol: as §1, §2

Row | Binder | Kd
11 | B1 | 62 nM
12 | B2 | 190 nM

biological target: T4, FcgRIIb extracellular domain, …; assay: SPR (Biacore), antibody captured on chip, FcgR extracellular domain as analyte, 25 C, 1:1 Langmuir fit; experiment #3
Protocol: (§3) Antibodies of interest were analyzed for the interaction to FcgR according to the method described in Reference Example 8.
as §2

Row | Binder | Kd
13 | B3 | 1300 nM
14 | B4 | 1300 nM
15 | B5 | 1200 nM
16 | B6 | 1600 nM
17 | B7 | 1400 nM
18 | B8 | 1300 nM
19 | B9 | 1000 nM

biological target: T5, FcgRIIa H type extracellular domain, …; assay: as above
Protocol: as §3, §2

Row | Binder | Kd
20 | B3 | 92 nM
21 | B4 | 69 nM
22 | B5 | 69 nM
23 | B6 | 77 nM
24 | B7 | 57 nM
25 | B8 | 77 nM
26 | B9 | 65 nM

biological target: T10, FcgRI extracellular domain, C-terminal His tag (human, UniProt P12314 16-292); assay: as above
T10 construct: extracellular domain; also called FcγRIa; FcgRIa; not shown: His tag attached to the C terminus
T10 sequence (P12314 16-292): as the sequence (P12314 16-292) above
Protocol: as §3, §2

Row | Binder | Kd
27 | B3 | 0.069 nM
28 | B4 | 0.078 nM
29 | B5 | 0.079 nM
30 | B6 | 0.06 nM
31 | B7 | 0.068 nM
32 | B8 | 0.038 nM
33 | B9 | 0.12 nM

biological target: T11, FcgRIIIa V type extracellular domain, C-terminal His tag (human, UniProt P08637 17-208); assay: as above
T11 construct: extracellular domain; also called FcγRIIIa V; 3aV; not shown: His tag attached to the C terminus
T11 sequence (P08637 17-208 F176V limits assumed): as the sequence (P08637 17-208) above, with F160V counted along it
Protocol: as §3, §2

Row | Binder | Kd
34 | B3 | 1.7 nM
35 | B4 | 1.4 nM
36 | B5 | 1.1 nM
37 | B6 | 1.5 nM
38 | B7 | 1 nM
39 | B8 | 1.3 nM
40 | B9 | 1.1 nM

biological target: T12, FcgRIIIa F type extracellular domain, C-terminal His tag (human, UniProt P08637 17-208); assay: as above
T12 construct: extracellular domain; also called FcγRIIIa F; 3aF; not shown: His tag attached to the C terminus
T12 sequence (P08637 17-208): as the sequence (P08637 17-208) above
Protocol: as §3, §2

Row | Binder | Kd
41 | B3 | 4.4 nM
42 | B4 | 3.9 nM
43 | B5 | 3.4 nM
44 | B6 | 4.2 nM
45 | B7 | 3.5 nM
46 | B8 | 3.5 nM
47 | B9 | 3.4 nM

biological target: T6, FcgRIIa R type extracellular domain, …; assay: as above
Protocol: as §3, §2

Row | Binder | Kd
48 | B3 | 280 nM
49 | B4 | 240 nM
50 | B5 | 270 nM
51 | B6 | 230 nM
52 | B7 | 220 nM
53 | B8 | 250 nM
54 | B9 | 230 nM
